Source: US20170096493A1 (EISAI R AND D MANAGEMENT, published 2017)

T1: Human Notch4-NRR domain Fc fusion protein (human, UniProt Q99466 1046-1445, limits assumed)
T1 construct: Expressed in a CHO cell line, used from culture supernatant; 1 is named; also called Human Notch4-NRR Fusion Protein; not shown: Fc
T1 sequence: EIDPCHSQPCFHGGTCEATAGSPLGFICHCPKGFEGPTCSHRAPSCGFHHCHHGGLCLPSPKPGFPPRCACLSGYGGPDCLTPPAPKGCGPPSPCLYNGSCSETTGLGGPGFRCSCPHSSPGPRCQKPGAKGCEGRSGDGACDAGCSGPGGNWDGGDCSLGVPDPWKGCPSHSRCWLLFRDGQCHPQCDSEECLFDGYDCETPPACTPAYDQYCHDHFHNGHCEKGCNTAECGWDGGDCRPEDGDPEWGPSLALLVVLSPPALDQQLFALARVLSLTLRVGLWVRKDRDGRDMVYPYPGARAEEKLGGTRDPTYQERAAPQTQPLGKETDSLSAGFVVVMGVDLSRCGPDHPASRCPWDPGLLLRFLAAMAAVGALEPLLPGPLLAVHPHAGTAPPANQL


Target: T1, Human Notch4-NRR domain Fc fusion …
Test: SPR (Biacore) as for Table 30; Notch4-NRR-Fc captured, antibody injected; averaged, N=6
Description: Kinetic analysis of further anti-Notch4 inhibitory humanized antibodies was carried out as follows. Human Notch4-NRR domain Fc fusion proteins were expressed with a CHO cell line. The antigen in the culture supernatant was captured by the anti-human Notch4 antibody fixed on a CM5 sensor chip that recognizes different epitopes of human Notch4. The humanized anti-human Notch4 antibody was then injected onto the sensor chip at various concentrations. The interaction and disassociation constants thereof were calculated according to manufacturer's instructions.

Kd	koff	kon	Binder
634 pM	0.00117 s⁻¹	1.89e+06 M⁻¹ s⁻¹	HK2L4 (antibody, human IgG2, kappa, Humanized IgG2 (V234A, G237A)/κ; also called No. 14) heavy: EVQLVESGGGLVQPGGSLRLSCAASGFTFSSYGMSWVRQAPGKGLELVSTINSNGGRTYYPDSVKGRFTISRDNSKNTLYLQMGSLRAEDMAVYYCARDQGFAYWGQGTLVTVSSASTKGPSVFPLAPCSRSTSESTAALGCLVKDYFPEPVTVSWNSGALTSGVHTFPAVLQSSGLYSLSSVVTVPSSNFGTQTYTCNVDHKPSNTKVDKTVERKCCVECPPCPAPPAAAPSVFLFPPKPKDTLMISRTPEVTCVVVDVSHEDPEVQFNWYVDGVEVHNAKTKPREEQFNSTFRVVSVLTVVHQDWLNGKEYKCKVSNKGLPAPIEKTISKTKGQPREPQVYTLPPSREEMTKNQVSLTCLVKGFYPSDIAVEWESNGQPENNYKTTPPMLDSDGSFFLYSKLTVDKSRWQQGNVFSCSVMHEALHNHYTQKSLSLSPGK light: not shown
612 pM	0.00136 s⁻¹	2.49e+06 M⁻¹ s⁻¹	HA2L5 (antibody, human IgG2, kappa, Humanized IgG2 (V234A, G237A)/κ; also called No. 30) heavy: EVQLVESGGGLVQPGGSLRLSCAASGFTFSSYGMSWVRQAPGKGLELVSTINSNGGRTYYANSVKGRFTISRDNSKNTLYLQMGSLRAEDMAVYYCARDQGFAYWGQGTLVTVSSASTKGPSVFPLAPCSRSTSESTAALGCLVKDYFPEPVTVSWNSGALTSGVHTFPAVLQSSGLYSLSSVVTVPSSNFGTQTYTCNVDHKPSNTKVDKTVERKCCVECPPCPAPPAAAPSVFLFPPKPKDTLMISRTPEVTCVVVDVSHEDPEVQFNWYVDGVEVHNAKTKPREEQFNSTFRVVSVLTVVHQDWLNGKEYKCKVSNKGLPAPIEKTISKTKGQPREPQVYTLPPSREEMTKNQVSLTCLVKGFYPSDIAVEWESNGQPENNYKTTPPMLDSDGSFFLYSKLTVDKSRWQQGNVFSCSVMHEALHNHYTQKSLSLSPGK light: DIQMTQSPSSLSASVGDRVTITCKASQDVGTAVAWYQQKPGKSPKLLIYWASTRHTGVPSRFSGSGSGTDFTLTISSLQPEDVATYFCQQYSSYPWTFGQGTKVEIKRTVAAPSVFIFPPSDEQLKSGTASVVCLLNNFYPREAKVQWKVDNALQSGNSQESVTEQDSKDSTYSLSSTLTLSKADYEKHKVYACEVTHQGLSSPVTKSFNRGEC
755 pM	0.0012 s⁻¹	1.61e+06 M⁻¹ s⁻¹	HK3L4 (antibody, human IgG2, kappa, Humanized IgG2 (V234A, G237A)/κ; also called No. 19) heavy: EVQLVESGGGLVQPGGSLRLSCAASGFTFSSYGMSWVRQAPGKGLELVATINSNGGRTYYPDSVKGRFTISRDNSKNTLYLQMGSLKAEDMAVYYCARDQGFAYWGQGTLVTVSSASTKGPSVFPLAPCSRSTSESTAALGCLVKDYFPEPVTVSWNSGALTSGVHTFPAVLQSSGLYSLSSVVTVPSSNFGTQTYTCNVDHKPSNTKVDKTVERKCCVECPPCPAPPAAAPSVFLFPPKPKDTLMISRTPEVTCVVVDVSHEDPEVQFNWYVDGVEVHNAKTKPREEQFNSTFRVVSVLTVVHQDWLNGKEYKCKVSNKGLPAPIEKTISKTKGQPREPQVYTLPPSREEMTKNQVSLTCLVKGFYPSDIAVEWESNGQPENNYKTTPPMLDSDGSFFLYSKLTVDKSRWQQGNVFSCSVMHEALHNHYTQKSLSLSPGK light: not shown
727 pM	0.00137 s⁻¹	1.95e+06 M⁻¹ s⁻¹	HA2L3 (antibody, human IgG2, kappa, Humanized IgG2 (V234A, G237A)/κ; also called No. 28) heavy: EVQLVESGGGLVQPGGSLRLSCAASGFTFSSYGMSWVRQAPGKGLELVSTINSNGGRTYYANSVKGRFTISRDNSKNTLYLQMGSLRAEDMAVYYCARDQGFAYWGQGTLVTVSSASTKGPSVFPLAPCSRSTSESTAALGCLVKDYFPEPVTVSWNSGALTSGVHTFPAVLQSSGLYSLSSVVTVPSSNFGTQTYTCNVDHKPSNTKVDKTVERKCCVECPPCPAPPAAAPSVFLFPPKPKDTLMISRTPEVTCVVVDVSHEDPEVQFNWYVDGVEVHNAKTKPREEQFNSTFRVVSVLTVVHQDWLNGKEYKCKVSNKGLPAPIEKTISKTKGQPREPQVYTLPPSREEMTKNQVSLTCLVKGFYPSDIAVEWESNGQPENNYKTTPPMLDSDGSFFLYSKLTVDKSRWQQGNVFSCSVMHEALHNHYTQKSLSLSPGK light: not shown
549 pM	0.00112 s⁻¹	2.07e+06 M⁻¹ s⁻¹	HK2L5 (antibody, human IgG2, kappa, Humanized IgG2 (V234A, G237A)/κ; also called No. 15) heavy: EVQLVESGGGLVQPGGSLRLSCAASGFTFSSYGMSWVRQAPGKGLELVSTINSNGGRTYYPDSVKGRFTISRDNSKNTLYLQMGSLRAEDMAVYYCARDQGFAYWGQGTLVTVSSASTKGPSVFPLAPCSRSTSESTAALGCLVKDYFPEPVTVSWNSGALTSGVHTFPAVLQSSGLYSLSSVVTVPSSNFGTQTYTCNVDHKPSNTKVDKTVERKCCVECPPCPAPPAAAPSVFLFPPKPKDTLMISRTPEVTCVVVDVSHEDPEVQFNWYVDGVEVHNAKTKPREEQFNSTFRVVSVLTVVHQDWLNGKEYKCKVSNKGLPAPIEKTISKTKGQPREPQVYTLPPSREEMTKNQVSLTCLVKGFYPSDIAVEWESNGQPENNYKTTPPMLDSDGSFFLYSKLTVDKSRWQQGNVFSCSVMHEALHNHYTQKSLSLSPGK light: DIQMTQSPSSLSASVGDRVTITCKASQDVGTAVAWYQQKPGKSPKLLIYWASTRHTGVPSRFSGSGSGTDFTLTISSLQPEDVATYFCQQYSSYPWTFGQGTKVEIKRTVAAPSVFIFPPSDEQLKSGTASVVCLLNNFYPREAKVQWKVDNALQSGNSQESVTEQDSKDSTYSLSSTLTLSKADYEKHKVYACEVTHQGLSSPVTKSFNRGEC
738 pM	0.00169 s⁻¹	2.33e+06 M⁻¹ s⁻¹	HA2L4 (antibody, human IgG2, kappa, Humanized IgG2 (V234A, G237A)/κ; also called No. 29) heavy: EVQLVESGGGLVQPGGSLRLSCAASGFTFSSYGMSWVRQAPGKGLELVSTINSNGGRTYYANSVKGRFTISRDNSKNTLYLQMGSLRAEDMAVYYCARDQGFAYWGQGTLVTVSSASTKGPSVFPLAPCSRSTSESTAALGCLVKDYFPEPVTVSWNSGALTSGVHTFPAVLQSSGLYSLSSVVTVPSSNFGTQTYTCNVDHKPSNTKVDKTVERKCCVECPPCPAPPAAAPSVFLFPPKPKDTLMISRTPEVTCVVVDVSHEDPEVQFNWYVDGVEVHNAKTKPREEQFNSTFRVVSVLTVVHQDWLNGKEYKCKVSNKGLPAPIEKTISKTKGQPREPQVYTLPPSREEMTKNQVSLTCLVKGFYPSDIAVEWESNGQPENNYKTTPPMLDSDGSFFLYSKLTVDKSRWQQGNVFSCSVMHEALHNHYTQKSLSLSPGK light: not shown
897 pM	0.00104 s⁻¹	1.22e+06 M⁻¹ s⁻¹	HK3L3 (antibody, human IgG2, kappa, Humanized IgG2 (V234A, G237A)/κ; also called No. 18) heavy: EVQLVESGGGLVQPGGSLRLSCAASGFTFSSYGMSWVRQAPGKGLELVATINSNGGRTYYPDSVKGRFTISRDNSKNTLYLQMGSLKAEDMAVYYCARDQGFAYWGQGTLVTVSSASTKGPSVFPLAPCSRSTSESTAALGCLVKDYFPEPVTVSWNSGALTSGVHTFPAVLQSSGLYSLSSVVTVPSSNFGTQTYTCNVDHKPSNTKVDKTVERKCCVECPPCPAPPAAAPSVFLFPPKPKDTLMISRTPEVTCVVVDVSHEDPEVQFNWYVDGVEVHNAKTKPREEQFNSTFRVVSVLTVVHQDWLNGKEYKCKVSNKGLPAPIEKTISKTKGQPREPQVYTLPPSREEMTKNQVSLTCLVKGFYPSDIAVEWESNGQPENNYKTTPPMLDSDGSFFLYSKLTVDKSRWQQGNVFSCSVMHEALHNHYTQKSLSLSPGK light: not shown
682 pM	0.00109 s⁻¹	1.62e+06 M⁻¹ s⁻¹	HK2L3 (antibody, human IgG2, kappa, Humanized IgG2 (V234A, G237A)/κ; also called No. 13) heavy: EVQLVESGGGLVQPGGSLRLSCAASGFTFSSYGMSWVRQAPGKGLELVSTINSNGGRTYYPDSVKGRFTISRDNSKNTLYLQMGSLRAEDMAVYYCARDQGFAYWGQGTLVTVSSASTKGPSVFPLAPCSRSTSESTAALGCLVKDYFPEPVTVSWNSGALTSGVHTFPAVLQSSGLYSLSSVVTVPSSNFGTQTYTCNVDHKPSNTKVDKTVERKCCVECPPCPAPPAAAPSVFLFPPKPKDTLMISRTPEVTCVVVDVSHEDPEVQFNWYVDGVEVHNAKTKPREEQFNSTFRVVSVLTVVHQDWLNGKEYKCKVSNKGLPAPIEKTISKTKGQPREPQVYTLPPSREEMTKNQVSLTCLVKGFYPSDIAVEWESNGQPENNYKTTPPMLDSDGSFFLYSKLTVDKSRWQQGNVFSCSVMHEALHNHYTQKSLSLSPGK light: not shown
